The target of assay [1] is T1, rat FOLR1 extracellular domain linked to His tag (rat, UniProt G3V8M6 25-232).
T1 construct: BLI analyte; also called Rat-Ag
The assay is described as follows: BLI, Ag 125 nM; * below range of quantification. (BLI is a label-free optical method that tracks binding on a fibre tip over time.)

For assay [2], the target named is T2, mouse FOLR1 extracellular domain linked to His tag (mouse, UniProt P35846 25-232, limits assumed).
T2 construct: extracellular domain; BLI analyte; also called Mouse-Ag; not shown: His tag
In words: BLI, Ag 125 nM; * below range of quantification.

Assay [3] deals with T1, rat FOLR1 extracellular domain linked …. In words: BLI, Ag 15.6 nM; * below range of quantification.
For assay [4], the target named is T2, mouse FOLR1 extracellular domain linked …. In words: BLI, Ag 15.6 nM; * below range of quantification.
Assay [5] addresses T1, rat FOLR1 extracellular domain linked …. The assay is described as follows: BLI, Ag 31.3 nM; * below range of quantification.
The target of assay [6] is T2, mouse FOLR1 extracellular domain linked …. The assay is described as follows: BLI, Ag 31.3 nM; * below range of quantification.
Assay [7] addresses T1, rat FOLR1 extracellular domain linked …. In words: BLI, Ag 62.5 nM; * below range of quantification.
For assay [8], the target named is T2, mouse FOLR1 extracellular domain linked …. In words: BLI, Ag 62.5 nM; * below range of quantification.
In assay [9] the target is T1, rat FOLR1 extracellular domain linked …. In words: BLI, Ag 7.82 nM; * below range of quantification.
Assay [10] concerns the target T2, mouse FOLR1 extracellular domain linked …. The assay is described as follows: BLI, Ag 7.82 nM; * below range of quantification.
For assay [11], the target named is T3, human FOLR3 extracellular domain linked to His tag (human, UniProt P41439 23-245, limits assumed).
T3 construct: extracellular domain; BLI analyte; also called Hu-FRg; not shown: His tag
In words: BLI, global 1:1 fit; all responses below quantification range.

Assay [12] concerns the target T1, rat FOLR1 extracellular domain linked …. The description is as above.
Assay [13] concerns the target T4, human FOLR1 protein, His tag (ACRO-FO1-H52H1) (human, UniProt P15328 25-233).
T4 construct: Bought recombinant protein used for panning and for coating ELISA plates; not shown: His tag
The assay is described as follows: ELISA, supernatant diluted 25x. (In general: ELISA stands for enzyme-linked immunosorbent assay.)

T1 sequence (G3V8M6 entry or part of it limits assumed): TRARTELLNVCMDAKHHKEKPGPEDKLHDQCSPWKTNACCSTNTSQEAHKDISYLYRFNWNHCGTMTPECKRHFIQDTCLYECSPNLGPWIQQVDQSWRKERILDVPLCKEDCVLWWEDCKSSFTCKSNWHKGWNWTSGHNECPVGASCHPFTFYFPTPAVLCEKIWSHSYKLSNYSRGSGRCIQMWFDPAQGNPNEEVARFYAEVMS
T2 sequence (P35846 25-232 limits assumed): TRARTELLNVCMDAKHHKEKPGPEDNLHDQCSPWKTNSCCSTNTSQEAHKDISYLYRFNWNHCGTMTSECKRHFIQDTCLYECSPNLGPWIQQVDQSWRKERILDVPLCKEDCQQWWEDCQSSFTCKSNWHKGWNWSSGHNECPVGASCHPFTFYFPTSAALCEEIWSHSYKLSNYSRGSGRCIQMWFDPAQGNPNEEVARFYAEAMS
T3 sequence (P41439 23-245 limits assumed): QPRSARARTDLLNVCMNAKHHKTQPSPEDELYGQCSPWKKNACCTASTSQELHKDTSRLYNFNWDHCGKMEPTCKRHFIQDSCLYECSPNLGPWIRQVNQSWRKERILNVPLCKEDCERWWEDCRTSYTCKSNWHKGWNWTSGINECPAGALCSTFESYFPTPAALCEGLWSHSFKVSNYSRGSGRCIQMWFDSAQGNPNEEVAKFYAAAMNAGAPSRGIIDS
T4 sequence (P15328 25-233 limits assumed): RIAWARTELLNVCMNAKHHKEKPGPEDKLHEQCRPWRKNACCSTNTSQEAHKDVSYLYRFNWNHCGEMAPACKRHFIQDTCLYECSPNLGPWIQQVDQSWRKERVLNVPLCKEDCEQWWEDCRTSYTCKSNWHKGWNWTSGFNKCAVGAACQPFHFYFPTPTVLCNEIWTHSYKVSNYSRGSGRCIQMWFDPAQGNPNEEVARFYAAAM

B1: anti-huFOLR-1 conjugate F131-LD038 (antibody, V domains shown)
VH: EVQLLESGGGVVQPGRSLRLSCAASGFTFSSYGMHWVRQAPGKGLEWVAVISYDGSNKYYADSVKGRFTISRANSKNTLYLQMNSLRAEDTAVYYCARPRAYYGAYGSSFDYWGQGTQVTVSS
VL: EIVMTQSPSSVSASVGDRVAITCRASQGISSWLAWYQQKPGKAPKLLIYAASSLQSGVPSRFSGSGSGTDFTLTISSLQPEDFATYYCQQSYSTPLTFGGGTKVDIK
modifications: drug-linker LD038 coupled to cysteine thiols after TCEP reduction; positions not given; drug-linker LD038 (PB038; PEG unit, Val-Cit-PAB cleavable linker, exatecan) coupled by maleimide to cysteine thiols after TCEP reduction; DAR 7.6 by LC-MS; positions not given
notes: also called F131-038; PA038 conjugate of F131
The Kd is the free concentration of one partner at which half of the binding sites on the other are occupied at equilibrium, for simple one-to-one binding. By koff is commonly meant the rate constant with which the complex falls apart. Low values mean slow dissociation, high ones fast dissociation. As usually defined, the kon is a measure of how fast the partners come together. Low readings indicate slow association, high ones fast association. B1: the Response in [1] is 0.0007; in assay [2], 0.0008; in assay [3], -0.00212; in assay [4] it was -0.00324; in [5], -0.00454; in assay [6] it was -0.00132. The Response was -0.00393 in assay [7], -0.000242 in assay [8], -0.00438 in assay [9] and -0.00483 in assay [10]. Moreover, the Kd was found to be 0.0328 nM in assay [11] and 84.8 nM in assay [12]. In [12], the koff was determined as 0.224 s⁻¹. In assay [12], the kon came to 2.64e+06 M⁻¹ s⁻¹.

B2: anti-FOLR1 antibody F131 (antibody, V domains shown)
VH: EVQLLESGGGVVQPGRSLRLSCAASGFTFSSYGMHWVRQAPGKGLEWVAVISYDGSNKYYADSVKGRFTISRANSKNTLYLQMNSLRAEDTAVYYCARPRAYYGAYGSSFDYWGQGTQVTVSS
VL: EIVMTQSPSSVSASVGDRVAITCRASQGISSWLAWYQQKPGKAPKLLIYAASSLQSGVPSRFSGSGSGTDFTLTISSLQPEDFATYYCQQSYSTPLTFGGGTKVDIK
notes: Tested as full-length IgG with an IgG1 Fc (HEK293 supernatant and purified; later ExpiCHO-S); also called F131 mAb; F131 Ab
B2: the Response was -0.00477 in assay [1]; -0.000579 in assay [2]; -0.00395 in assay [3]; -0.0051 in assay [4]; -0.00532 in [5]; -0.00251 in assay [6]. For the same molecule, the Response in assay [7] was -0.00606; in assay [8], -0.00178; in assay [9], -0.00563; in [10], 0.0027. In assay [12], this molecule showed an off-rate constant (koff) of 1.03 s⁻¹. Besides, the association rate constant (kon) in assay [12] is 5490 M⁻¹ s⁻¹.

B3: anti-FOLR1 antibody F138 (antibody, V domains shown)
VH: EVQLLESGGGVVQPGRSLRLSCAASGFTFSSYGMHWVRQAPGKGLEWVAVISYDGSNKYYADSVKGRFTISTHNSKNTLYLQMNSLRAEDTAVYYCARPRAYYGAYGSSFDYWGQGTQVTVSS
VL: EIVMTQSPSSVSASVGDRVAITCRASQGISSWLAWYQQKPGKAPKLLIYAASSLQSGVPSRFSGSGSGTDFTLTISSLQPEDFATYYCQQSYSTPLTFGGGTKVDIK
notes: Tested as full-length IgG with an IgG1 Fc, expressed in HEK293 (transfection supernatant); also called clone F138
Regarding B3, in assay [13], the OD450 is 0.827 OD450.

Values taken from patent US20240207418A1 (PROFOUNDBIO US, published 2024).
